Experimental data as given in patent publication US20100159482A1 (LIFE TECHNOLOGIES, published 2010).
The star is where a group is joined. MeOSuc = COC(=O)CCC(=O)*; CH2Cl = ClC*

How the values were obtained:
[1] = target: T1, proteinase K (UniProt P06873 106-384); assay: computed, not measured: CDOCKER docking on PDB 3PRK, MM-PBSA rescoring, average of three poses
Protocol: Based on the studies cited in the previous examples, a study was carried out to examine the change in total binding free energy of peptide inhibitor to proteinase K to form the peptide-inhibitor complex. The molecular docking of inhibitors MeOSuc-AAPV-CH₂Cl (SEQ ID NO:2), MeOSuc-AAPL-CH₂Cl (SEQ ID NO:10), MeOSuc-AAAPV-CH₂Cl (SEQ ID NO:8), MeOSuc-AAAPL-CH₂Cl (SEQ ID NO:7), MeOSuc-AAAPF-CH₂Cl (SEQ ID NO:9), MeOSuc-AAPA-CH₂Cl (SEQ ID NO:1), and MeOSuc-AAPF-CH₂Cl (SEQ ID NO:5) into the binding site of Proteinase K was performed using CDOCKER of Discovery Studio V2.01 (1. (Accelrys Software Inc., Discovery Studio Modeling Environment, Release 2.01, San Diego: Accelrys Software Inc., 2008., trial version) which uses a CHARMm based Molecular Dynamics docking algorithm. The crystal structure of the protein complex covalently formed between proteinase K and MeOSuc-AAPA-CH₂Cl (SEQ ID NO:1) was used as a starting structure for molecular simulation (PDB CODE: 3PRK; Wolf W M et al. J. Biol. Chem. 1991, 266, 17695). Water molecules were removed from the protein complex, protonated at pH 8.0 and the structure was energy minimized using CHARMm force field with a convergence threshold of 0.05 kcal/mol A. Then, the inhibitor part was removed from the protein complex and was used to build the structures of MeOSuc-AAPV-CH₂Cl (SEQ ID NO:2) (see FIG. 8A), MeOSuc-AAPL-CH₂Cl (SEQ ID NO:10) (see FIG. 9A), MeOSuc-AAAPV-CH₂Cl (SEQ ID NO:8) (see FIG. 8B), MeOSuc-AAAPL-CH₂Cl (SEQ ID NO:7) (see FIG. 9B), MeOSuc-AAAPF-CH₂Cl (SEQ ID NO:9) (see FIG. 11B), MeOSuc-AAPA-CH₂Cl (SEQ ID NO:1) (see FIG. 10), and MeOSuc-AAPF-CH₂Cl (SEQ ID NO:5) (see FIG. 11A). A site sphere with a radius of 13A was created at center of the active site of inhibitor-free proteinase K.
The CDOCKER algorithm can generate several different orientations for each inhibitor in the active site of proteinase K within the site sphere and perform MD-based simulated annealing followed by final minimization. […] The MD simulation for each orientation consisted of 1000 steps at 2 fs per step and at 1000 K. No inherent restrictions were placed on the conformers of inhibitors.

[2] = target: T1, proteinase K; assay: cell-based or functional assay

T1 sequence (P06873 106-384 limits assumed): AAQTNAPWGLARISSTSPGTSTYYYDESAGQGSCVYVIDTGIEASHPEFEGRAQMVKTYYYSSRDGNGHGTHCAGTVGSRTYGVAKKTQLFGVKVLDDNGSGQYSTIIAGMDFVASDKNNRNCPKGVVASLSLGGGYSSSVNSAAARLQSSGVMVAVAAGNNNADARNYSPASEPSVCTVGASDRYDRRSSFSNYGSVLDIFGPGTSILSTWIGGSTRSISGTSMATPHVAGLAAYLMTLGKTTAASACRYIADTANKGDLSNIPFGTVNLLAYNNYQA

Row | Molecule | ΔΔGBind (total binding free energy, calculated) [1] [kcal/mol] | effective inhibitory concentration, beta-actin RT-qPCR from HeLa cell lysates [2] [mM] | lowest inhibitory concentration in the stopped mixture, indirect linked RT-qPCR assay [2] [mM]
1 | AAAPL (HELM PEPTIDE1{[COC(=O)CCC(=O)[*:2]].A.A.A.P.L.[ClC[*:1]]}$$$$V2.0; SMILES COC(=O)CCC(=O)N[C@@H](C)C(=O)N[C@@H](C)C(=O)N[C@@H](C)C(=O)N1CCC[C@H]1C(=O)N[C@@H](CC(C)C)C(=O)CCl, also called MeOSuc-AAAPL-CH2Cl; A3PL) [MeOSuc-AlaAlaAlaProLeu-CH2Cl] | -30.9 | ~0.1 | ~0.05
2 | MeOSuc-AAPV-CH2Cl (also called MeOSuc-AAPV-CH2Cl; MSVCK) [methoxysuccinyl-AlaAlaProVal-chloromethyl ketone] | -6.63 | 0.5 | ~0.25
3 | AAPL (HELM PEPTIDE1{[COC(=O)CCC(=O)[*:2]].A.A.P.L.[ClC[*:1]]}$$$$V2.0; SMILES COC(=O)CCC(=O)N[C@@H](C)C(=O)N[C@@H](C)C(=O)N1CCC[C@H]1C(=O)N[C@@H](CC(C)C)C(=O)CCl, also called MeOSuc-AAPL-CH2Cl; methoxysuccinyl-AAPL-chloromethyl ketone) [MeOSuc-AlaAlaProLeu-CH2Cl] | -12.7 | ~0.1 | –
4 | AAAPF (HELM PEPTIDE1{[COC(=O)CCC(=O)[*:2]].A.A.A.P.F.[ClC[*:1]]}$$$$V2.0; SMILES COC(=O)CCC(=O)N[C@@H](C)C(=O)N[C@@H](C)C(=O)N[C@@H](C)C(=O)N1CCC[C@H]1C(=O)N[C@@H](Cc1ccccc1)C(=O)CCl) [MeOSuc-AlaAlaAlaProPhe-CH2Cl] | 9.95 | 0.1 | –
5 | AAAPV (HELM PEPTIDE1{[COC(=O)CCC(=O)[*:2]].A.A.A.P.V.[ClC[*:1]]}$$$$V2.0; SMILES COC(=O)CCC(=O)N[C@@H](C)C(=O)N[C@@H](C)C(=O)N[C@@H](C)C(=O)N1CCC[C@H]1C(=O)N[C@H](C(=O)CCl)C(C)C) [MeOSuc-AlaAlaAlaProVal-CH2Cl] | 1.32 | 0.5 | –

Other lines, results leading:

Row | ΔΔGBind (total binding free energy, calculated) [1] [kcal/mol] | effective inhibitory concentration, beta-actin RT-qPCR from HeLa cell lysates [2] [mM] | lowest inhibitory concentration in the stopped mixture, indirect linked RT-qPCR assay [2] [mM] | Molecule
6 | -14.6 | – | – | methoxysuccinyl-AlaAlaProAla-chloromethyl ketone (peptide)
7 | – | – | ~0.5 | APAL (HELM PEPTIDE1{[COC(=O)CCC(=O)[*:2]].A.P.A.L.[ClC[*:1]]}$$$$V2.0; SMILES COC(=O)CCC(=O)N[C@@H](C)C(=O)N1CCC[C@H]1C(=O)N[C@@H](C)C(=O)N[C@@H](CC(C)C)C(=O)CCl) [MeOSuc-AlaProAlaLeu-CH2Cl]
8 | -2.55 | – | ~0.05 | AAPF (HELM PEPTIDE1{[COC(=O)CCC(=O)[*:2]].A.A.P.F.[ClC[*:1]]}$$$$V2.0; SMILES COC(=O)CCC(=O)N[C@@H](C)C(=O)N[C@@H](C)C(=O)N1CCC[C@H]1C(=O)N[C@@H](Cc1ccccc1)C(=O)CCl, also called MeOSuc-AAPF-CH2Cl; MSFCK) [MeOSuc-AlaAlaProPhe-CH2Cl]
